Measurements as given in the supplement of paper PMC10724198.
± gives the standard deviation of the averaged measurements.

Columns and labels:
Saccharomyces cerevisiae [1] = assay: protein stability index of tFT-peptide fusion (C-terminal peptide) (PSI (0-1 scale)); higher = more stable (slower turnover)
Experimental: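 MPS profiling in S. cerevisiae of the tFT-X12 degron library: putative degron peptides plus stable controls, 12 aa, fused to the C-terminus of a sfGFP-mCherry timer. Cells are FACS-sorted into 8 mCherry/sfGFP bins and deep-sequenced. PSI runs from 0 (unstable) to 1 (stable). Backgrounds are wild type, das1Δ and doa10Δ at 30 °C, and wild type, das1Δ, cdc34-1 and cdc53-1 at 37 °C; 2-3 technical replicates each.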

Saccharomyces cerevisiae [2] = assay: as above; settings: genetic background: wild type; temperature: 30 C
[3] = genetic background: cdc34-1, temperature: 37 C
[4] = genetic background: cdc53-1, temperature: 37 C
[5] = genetic background: das1 deletion, temperature: 30 C
[6] = genetic background: das1 deletion, temperature: 37 C
[7] = genetic background: doa10 deletion, temperature: 30 C
[8] = genetic background: wild type, temperature: 30 C
[9] = genetic background: wild type, temperature: 37 C
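Further: PSI is a weighted mean of sequencing reads over stability bins, variants kept only with over 10 reads, mCherry proximal and sfGFP distal, peptide attached via GGGS linker.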

Sequence	protein stability index (Saccharomyces cerevisiae [1]; [3])	protein stability index (Saccharomyces cerevisiae [1]; [4])	protein stability index (Saccharomyces cerevisiae [1]; [5])	protein stability index (Saccharomyces cerevisiae [1]; [6])	protein stability index (Saccharomyces cerevisiae [1]; [7])	protein stability index (Saccharomyces cerevisiae [1]; [8])	protein stability index (Saccharomyces cerevisiae [1]; [9])	protein stability index (Saccharomyces cerevisiae [2])
GFCVRIFHGFLH	0.634 ± 0.0084	0.7 ± 0.044	0.649 ± 0.018	0.7197 ± 0.0045	0.215 ± 0.0082	0.251 ± 0.04	0.501 ± 0.014	0.351 ± 0.01
WTILTVMFCSYI	0.312 ± 0.011	0.396 ± 0.014	0.276 ± 0.026	0.418 ± 0.031	0.282 ± 0.0044	0.261 ± 0.022	0.377 ± 0.019	0.275 ± 0.026
PLSRLLPLYFLL	0.405 ± 0.015	0.547 ± 0.00061	0.548 ± 0.017	0.66444 ± 0.00057	0.0797 ± 0.0046	0.0647 ± 0.0097	0.0945 ± 0.018	0.0966 ± 0.0083
CRLFPFPLLAQL	0.646 ± 0.034	0.7407 ± 0.003	0.628 ± 0.021	0.7522 ± 0.0063	0.425 ± 0.013	0.415 ± 0.025	0.484 ± 0.023	0.488 ± 0.084
FARYLRSMYILF	0.546 ± 0.026	0.54989 ± 0.0003	0.5426 ± 0.0032	0.6721 ± 0.0049	0.369 ± 0.014	0.343 ± 0.019	0.462 ± 0.0051	0.409 ± 0.029
FLFLESFLFFYL	0.5 ± 0.052	0.4797 ± 0.0046	0.418 ± 0.03	0.5698 ± 0.0026	0.502 ± 0.0079	0.411 ± 0.017	0.525 ± 0.055	0.499 ± 0.02
SGGRFVLFIIAV	0.444 ± 0.012	0.538 ± 0.048	0.376 ± 0.031	0.582 ± 0.013	0.344 ± 0.022	0.37 ± 0.023	0.535 ± 0.0051	0.42491 ± 0.00036
PPVRCVRLPLSS	0.687 ± 0.035	0.744 ± 0.0097	0.649 ± 0.029	0.717 ± 0.01	0.647 ± 0.015	0.6376 ± 0.0037	0.689 ± 0.0054	0.63 ± 0.26
CSLPVLFLPYYL	0.581 ± 0.025	0.5788 ± 0.0043	0.523 ± 0.022	0.625 ± 0.022	0.606 ± 0.014	0.492 ± 0.0051	0.572 ± 0.02	0.486 ± 0.14
FSCEFKMSCLKS	0.649 ± 0.04	0.701 ± 0.0097	0.601 ± 0.023	0.679 ± 0.016	0.474 ± 0.015	0.488 ± 0.029	0.605 ± 0.017	0.507 ± 0.011
CSPVNGSAVWSI	0.688 ± 0.032	0.736 ± 0.016	0.668 ± 0.02	0.7551 ± 0.00081	0.664 ± 0.019	0.667 ± 0.017	0.7093 ± 0.0046	0.699 ± 0.076
FLFVSVFHPALL	0.6421 ± 0.0042	0.70858 ± 0.0003	0.593 ± 0.059	0.6911 ± 0.0062	0.3787 ± 0.0024	0.409 ± 0.019	0.601 ± 0.013	–
RHSFSRVKLIQF	0.593 ± 0.046	0.6834 ± 0.00096	0.65 ± 0.032	0.732 ± 0.0089	0.0871 ± 0.021	0.0925 ± 0.033	0.117 ± 0.0029	0.113 ± 0.033
ERLVFKRWYLCL	0.585 ± 0.028	0.605 ± 0.062	0.571 ± 0.033	0.7056 ± 0.0052	0.0726 ± 0.026	0.0951 ± 0.039	0.136 ± 0.0091	0.123 ± 0.018
GLCLMICVLCFV	0.207 ± 0.0085	0.315 ± 0.023	0.244 ± 0.027	0.382 ± 0.0052	0.214 ± 0.00016	0.23 ± 0.027	0.337 ± 0.023	0.299 ± 0.0039
HFRFSRYIRWVL	0.619 ± 0.08	0.7004 ± 0.0021	0.653 ± 0.02	0.746 ± 0.0079	0.139 ± 0.0018	0.151 ± 0.016	0.332 ± 0.0057	0.237 ± 0.013
VSYAVIVLVFKG	0.211 ± 0.056	0.317 ± 0.051	0.234 ± 0.026	0.463 ± 0.018	0.2 ± 0.022	0.22 ± 0.023	0.339 ± 0.04	0.329 ± 0.037

Sequence	protein stability index (Saccharomyces cerevisiae [1]; [3])	protein stability index (Saccharomyces cerevisiae [1]; [4])	protein stability index (Saccharomyces cerevisiae [1]; [5])	protein stability index (Saccharomyces cerevisiae [1]; [6])	protein stability index (Saccharomyces cerevisiae [1]; [7])	protein stability index (Saccharomyces cerevisiae [1]; [8])	protein stability index (Saccharomyces cerevisiae [1]; [9])	protein stability index (Saccharomyces cerevisiae [2])
SVCCSLLAVASP	0.311 ± 0.035	0.355 ± 0.016	0.364 ± 0.022	0.323 ± 0.016	0.392 ± 0.029	0.384 ± 0.027	0.29 ± 0.0066	0.3666 ± 0.0026
FCCSFFLCVCFV	0.349 ± 0.036	0.371 ± 0.0043	0.309 ± 0.019	0.409 ± 0.007	0.29 ± 0.017	0.276 ± 0.034	0.348 ± 0.013	0.392 ± 0.0044
NTDRRNICKISS	0.493 ± 0.031	0.671 ± 0.059	0.631 ± 0.02	0.733 ± 0.0086	0.105 ± 0.0079	0.1084 ± 0.00051	0.169 ± 0.0083	0.163 ± 0.044
EIKTEIGKKKKN	0.632 ± 0.2	0.671 ± 0.022	0.723 ± 0.05	0.658 ± 0.045	0.541 ± 0.0061	0.61 ± 0.028	0.608 ± 0.067	0.503 ± 0.0079
LSALMVLSFILV	0.377 ± 0.016	0.4332 ± 0.0036	0.379 ± 0.024	0.4573 ± 0.00059	0.343 ± 0.011	0.355 ± 0.028	0.428 ± 0.0022	0.418 ± 0.033
SKPFPRHIFSLH	0.674 ± 0.022	0.737 ± 0.027	0.663 ± 0.026	0.7348 ± 0.0039	0.481 ± 0.03	0.4981 ± 0.0046	0.644 ± 0.012	0.503 ± 0.046
FFSSSASVLFII	0.686 ± 0.11	0.7852 ± 0.0067	0.663 ± 0.029	0.79 ± 0.0075	0.19 ± 0.015	0.198 ± 0.016	0.394 ± 0.039	0.299 ± 0.016
SLFERLSPVLCF	0.249 ± 0.037	0.2784 ± 0.0027	0.23 ± 0.024	0.3548 ± 0.00059	0.214 ± 0.008	0.224 ± 0.017	0.30185 ± 0.00011	0.308 ± 0.011
GCPRSWSFNIYV	0.686 ± 0.046	0.739 ± 0.0099	0.665 ± 0.013	0.742 ± 0.018	0.182 ± 0.018	0.199 ± 0.022	0.463 ± 0.013	0.408 ± 0.04
HSVPPYPTPPPF	0.668 ± 0.054	0.739 ± 0.0011	0.337 ± 0.041	0.616 ± 0.0097	0.302 ± 0.016	0.372 ± 0.016	0.586 ± 0.025	0.463 ± 0.002
SLLWLYSAFVWY	0.302 ± 0.012	0.409 ± 0.011	0.347 ± 0.032	0.503 ± 0.016	0.188 ± 0.027	0.186 ± 0.023	0.386 ± 0.069	0.324 ± 0.05
HNLYCKILQLCV	0.419 ± 0.013	0.49 ± 0.12	0.304 ± 0.049	0.497 ± 0.04	0.242 ± 0.017	0.294 ± 0.025	0.449 ± 0.03	0.446 ± 0.0057
SFFSFLLLRVPC	0.119 ± 0.022	0.144 ± 0.019	0.203 ± 0.026	0.303 ± 0.022	0.199 ± 0.0044	0.201 ± 0.026	0.288 ± 0.043	0.308 ± 0.03
DTAFLLVVVVGR	0.309 ± 0.0076	0.358 ± 0.036	0.257 ± 0.028	0.446 ± 0.017	0.213 ± 0.0084	0.232 ± 0.032	0.411 ± 0.029	0.373 ± 0.042
FMCGWRMLVSVS	0.0379 ± 0.032	0.0371 ± 0.0077	0.0474 ± 0.016	0.0676 ± 0.027	0.0307 ± 0.0023	0.0292 ± 0.011	0.045 ± 0.019	0.0594 ± 0.023
ARRRYEVLAVLV	0.477 ± 0.024	0.522 ± 0.025	0.459 ± 0.041	0.5983 ± 0.0026	0.135 ± 0.0081	0.149 ± 0.024	0.149 ± 0.021	0.227 ± 0.0072
RILKEFKRIAVL	0.501 ± 0.05	0.687 ± 0.092	0.479 ± 0.024	0.7193 ± 0.006	0.093 ± 0.0061	0.0985 ± 0.016	0.139 ± 0.032	0.168 ± 0.031
